Target: T1, HLA-A2*0201 on T2 cells (human)
T1 construct: whole, on cells; also called HLA-A2 antigen
Assay: T2 cell HLA-A2 stabilisation assay, flow cytometry
Procedure: T2 cells incubated with peptides were stained for the presence of cell surface HLA-A2 antigen using flow cytometry. Fluorescent intensity of stained cells was used to determine the ability of test peptides to bind and therefore stabilise HLA-A2. […] The RBI was calculated for each peptide from the obtained mean fluorescence intensity (MFI) of T2 cells incubated with test peptide divided by the MFI obtained from cells incubated with 100% DMSO alone.
T2 cells were washed twice in serum-free RPMI and incubated overnight at 37° C. in a round-bottomed 96 well plate in 50 μl serum-free RPMI containing 160,000 cells and final concentrations of 100, 10 and 1 μM of peptide. A negative control was provided by adding dilute DMSO without peptide to 2 wells. […] After washing in phosphate buffered saline (PBS) (Oxoid, UK) containing 0.1% bovine serum albumin (BSA) (Sigma, USA), the cells were incubated on ice for 30 minutes with 20 μl of mouse antihuman HLA-A2 antibody MA2.1 (ATCC, UK). Following washing with PBS+BSA, 100 μl of a 1/100 dilution of FITC labelled goat anti-mouse IgG (Sigma, USA) was added and the cells incubated for 30 minutes on ice. The cells were washed twice using PBS+BSA, fixed in 500 μl Isoton and allowed to normalise to room temperature for 20 minutes prior to analysis by flow cytometry.

Binder: ALASCFCFFC [PAP.15]
- binding result: no binding (tested: 100 µM, 10 µM and 1 µM)

Reference: patent US20070280939A1 (published 2007)
